Data as given in patent US20220033784A1 (priority 2020, published 2022).

B1: Fc-IL2-R38N:L40T-K43N:Y45T (protein)
chain: APTSSSTKKTQLQLEHLLLDLQMILNGINNYKNPKLTNMTTFNFTMPKKATELKHLQCLEEELKPLEEVLNLAQSKNFHLRPRDLISNINVIVLELKGSETTFMCEYADETATIVEFLNRWITFCQSIISTLT
B2: Fc-IL2-K43N:Y45T-L72N:Q74T (protein)
chain: APTSSSTKKTQLQLEHLLLDLQMILNGINNYKNPKLTRMLTFNFTMPKKATELKHLQCLEEELKPLEEVLNNATSKNFHLRPRDLISNINVIVLELKGSETTFMCEYADETATIVEFLNRWITFCQSIISTLT

What was measured:
hIL2Rα (CD25) = biological target: T1, hIL2Rα (CD25) (Homo sapiens, UniProt P01589); test: Biacore 8K surface plasmon resonance, hIL2Rα (CD25); type: binding; settings: SPR, Table B
T1 construct: Purified soluble ligands were covalently coupled onto a CM5 sensor chip
T1 sequence (P01589 22-240 limits assumed): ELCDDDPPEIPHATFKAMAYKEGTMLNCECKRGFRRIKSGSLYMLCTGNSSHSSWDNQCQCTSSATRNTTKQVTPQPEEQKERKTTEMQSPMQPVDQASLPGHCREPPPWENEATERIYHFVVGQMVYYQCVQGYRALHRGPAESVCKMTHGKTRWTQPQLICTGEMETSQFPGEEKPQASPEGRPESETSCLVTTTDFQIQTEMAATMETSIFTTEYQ
Experimental: (§1) All experiments were performed on a Biacore 8K Surface Plasmon Resonance based biosensor (GE Healthcare). Purified soluble ligands were covalently coupled onto a CM5 sensor chip using an Amine Coupling Kit (GE Healthcare, Product #BR100050) following the manufacturer's recommendations. HBS-EP+ running buffer (10 mM HEPES pH 7.4, 0.15 M NaCl, 3 mM EDTA, 0.005% P-20), ranging in concentration was injected on all flow cells for 7 minutes at 20 μL/min. CD25 and CD122 was captured to surface densities of ˜20 and ˜500 RU, respectively. A non-derivatized flow cell was used as a reference surface. All flow cells were blocked with 100 mM ethylenediamine in 200 mM borate buffer pH 8.5 for 7 minutes at 10 μL/min.
Protein interaction experiments were performed using HBS-EP+(pH 7.4) at 25° C. on each spot. Following capture of antigens, analyte (1.23, 3.7, 11.1, 33.3, 100, 300, and 900 nM concentrations of IL-2 variants) was injected at a flow rate of 50 μL/min in all flow cells for 50 seconds. After each analyte injection, dissociation was monitored for 5 minutes, followed by regeneration of all flow cells with a 20 second injection of 10 mM glycine (pH 2.1). Buffer cycles were collected for each sample for double-referencing purposes (double-referencing as described in Myszka, D. G., Improving biosensor analysis. J. Mol. Recognit. 12, 279-284 (1999)). […]

[1] = system: HH cells (IL-2 CD122/CD132 (β/γ) receptor complex); test: pSTAT5 ELISA in HH cells; type: cell-based; settings: for relative selectivity for HH cells vs iTreg cells among the tested molecules: Table C; for Selectivity HH/iTreg: higher value = greater selectivity for HH cells; for EC50: pSTAT5 level 50% of maximum, InstantOne ELISA, read-out: EC50 HH T cell
Experimental: (§2) The ability of the IL-2 variants to activate HH cells and iTregs was measured by monitoring relative changes in phosphorylated STAT5 (pSTAT5) in response to treatment of the cells with the IL-2 variants. pSTAT5 is known to be a downstream consequence of IL-2 signaling. HH T cells (ATCC CRL-2105) are a line of T cells that lack the alpha chain of the IL-2 receptor complex, but that contain the beta and gamma chains of the IL-2 receptor complex. iTreg cells were prepared from Fresh Leuko Paks obtained from […] Technologies (CAT #70500.1, Donor #D001003551).
(§3) For IL-2 activation, the HH cells and iTreg cells were plated at 2*10e6 cells/well in 50 ul serum-free RPMI 1640 media (Gibco), and allowed to rest at 37° C. After resting, cells were treated the IL-2 molecules listed above, and cells were then pelleted by centrifugation.
(§4) Following treatment with the IL-2 molecules, cell induction status was evaluated by the InstantOne ELISA pSTAT5 detection kit (Invitrogen).

Treg cells = test: In vivo expansion of Treg cells (spleen immunophenotyping); parameters: species or system mice; settings: 0.5, 1, or 2 mg/kg daily for 4 days SC; spleens day 3
Experimental: (§5) Mice were randomized into groups to receive one of the molecules listed above or PBS control. The treatment groups were as follows: PBS; Fc-IL2; Fc-IL2v; […]; Immunophenotyping was conducted on day 3 after the first treatment (day 0) by collecting spleens from each group.

[2] = system: iTreg cells (IL-2 CD25/CD122/CD132 (α/β/γ) receptor complex); test: pSTAT5 ELISA in iTreg cells; type: cell-based; settings: pSTAT5 level 50% of maximum, InstantOne ELISA; read-out: EC50 iTreg cell
Experimental: as §2, §3, §4

hILR2β (CD122) = biological target: T2, hILR2β (CD122) (Homo sapiens, UniProt P14784); test: Biacore 8K surface plasmon resonance, hILR2β (CD122); type: binding; settings: SPR; for Kd / hILR2β (CD122) kinetics ka / hILR2β (CD122) kinetics kd: HBS-EP+ pH 7.4, 25° C.; for binding affinity to human IL-2Rβ compared with the wild-type IL-2 Fc fusion: Table B
T2 sequence (P14784 27-240 limits assumed): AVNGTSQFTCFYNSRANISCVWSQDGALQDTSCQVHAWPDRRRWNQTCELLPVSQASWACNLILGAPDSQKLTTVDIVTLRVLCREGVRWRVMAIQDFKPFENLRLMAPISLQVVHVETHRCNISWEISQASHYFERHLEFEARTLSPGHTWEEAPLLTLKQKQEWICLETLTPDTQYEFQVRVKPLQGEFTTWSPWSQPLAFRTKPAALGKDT
Experimental: as §1
Protein interaction experiments were performed using HBS-EP+(pH 7.4) at 25° C. on each spot. Following capture of antigens, analyte (1.23, 3.7, 11.1, 33.3, 100, 300, and 900 nM concentrations of IL-2 variants) was injected at a flow rate of 50 μL/min in all flow cells for 50 seconds. After each analyte injection, dissociation was monitored for 5 minutes, followed by regeneration of all flow cells with a 20 second injection of 10 mM glycine (pH 2.1). Buffer cycles were collected for each sample for double-referencing purposes (double-referencing as described in Myszka, D. G., Improving biosensor analysis. J. Mol. Recognit. 12, 279-284 (1999)). For kinetic analysis, the double-referenced sensorgrams were fit globally to a simple 1:1 Langmuir with mass transport binding model using Biacore 8K Evaluation Software version 1.1.1.7442. For steady-state affinity analysis, the double-referenced equilibrium binding responses were fit with a 1:1 Langmuir steady-state model using Biacore 8K Evaluation Software version 1.1.1.7442.

NK cells = test: In vivo expansion of NK cells (spleen immunophenotyping); parameters: species or system mice; settings: 0.5, 1, or 2 mg/kg daily for 4 days SC; spleens day 3
Experimental: as §5

B16F10 cells = test: Tolerability and tumor growth inhibition in B16F10-bearing mice (Example 21); type: in vivo, mouse (C57/BL6); settings: for surviving mice: 1 mg/kg SC on days 5, 6, 7, 8, groups of 15, day 12 post first treatment; for tolerability in mice compared with Fc-IL2 and Fc-IL2v: 1 mg/kg SC on days 5-8; for tumor growth inhibition in comparison to PBS control: B16F10 SC, 1 mg/kg SC on days 5-8, surviving mice
From the text: On day 0 of the experiment, female C57/BL6 mice were subcutaneously implanted in the upper thigh with approximately 500,000 B16F10 cells, which had been freshly thawed from a single, low-passage vial (of 1*10^7 cells) and cultured for the minimum time required to establish sufficient cells for implantation.
On day 5 of the experiment, mice were randomized into groups to receive one of the molecules listed above or control. […] Tumor volumes, body weight, and animal survival were tracked throughout the course of the experiment. Animals were sacrificed once tumors reached approximately 2000 mm^3 or 2 weeks post treatment.

CD8 T cells = test: In vivo expansion of CD8 T cells (spleen immunophenotyping); parameters: species or system mice; settings: 0.5, 1, or 2 mg/kg daily for 4 days SC; spleens day 3
Experimental: as §5

| Molecule | binding to IL-2Rα (hIL2Rα (CD25)) | relative selectivity for HH cells vs iTreg cells among the tested molecules [1] | Selectivity HH/iTreg [1] | EC50 [1] [nM] | proliferation of Treg cells in vivo (Treg cells) | EC50 [2] [nM] | Kd (hILR2β (CD122)) [µM] | hILR2β (CD122) kinetics ka (hILR2β (CD122)) [M⁻¹ s⁻¹] | hILR2β (CD122) kinetics kd (hILR2β (CD122)) [s⁻¹] | binding affinity to human IL-2Rβ compared with the wild-type IL-2 Fc fusion (hILR2β (CD122)) | expansion of NK cells in vivo (NK cells) | surviving mice (B16F10 cells) | tolerability in mice compared with Fc-IL2 and Fc-IL2v (B16F10 cells) | tumor growth inhibition in comparison to PBS control (B16F10 cells) | expansion of CD8 T cells in vivo (CD8 T cells) |
| --- | --- | --- | --- | --- | --- | --- | --- | --- | --- | --- | --- | --- | --- | --- | --- |
| B1 | do not have measurable binding to IL-2Rα | greatest relative selectivity | 6.47 × 10^−2 | 218 | minimal effects on the proliferation of Treg cells | 14.1 | 3.54 | 82600 | 0.292 | retain similar binding affinity | promoted the expansion | 11/15 | better tolerated | significant tumor growth inhibition | promoted the expansion |
| B2 | do not have measurable binding to IL-2Rα | greatest relative selectivity | 6.89 × 10^−2 | 65.2 | minimal effects on the proliferation of Treg cells | 4.49 | 2.62 | 89900 | 0.235 | retain similar binding affinity | promoted the expansion | 14/15 | better tolerated | significant tumor growth inhibition | promoted the expansion |
